Residue numbers refer to the chain shown, from its start. Names may count otherwise.
B1: P54AR4-83v2 A3C, NEM conjugate (designed binder, not shown: small tags and cut ends)
chain: LPCPKNLVVSEVTEDSARLSWDDPWAFYESFLIQYQESEKVGEAIVLTVPGSERSYDLTGLKPGTEYTVSIYGVHNVYKDTNMRGLPLSAIFTT
modifications: N-ethyl maleimide (NEM) on Cys 3
B2: P54AR4-83v2 I91C, NEM conjugate (designed binder, not shown: small tags and cut ends)
chain: B1 chain with C3A, I91C
modifications: N-ethyl maleimide (NEM) on Cys 91
B3: P54AR4-83v2 L86C, NEM conjugate (designed binder, not shown: small tags and cut ends)
chain: B1 chain with C3A, L86C
modifications: N-ethyl maleimide (NEM) on Cys 86
B4: P54AR4-83v2 N6C, NEM conjugate (designed binder, not shown: small tags and cut ends)
chain: B1 chain with C3A, N6C
modifications: N-ethyl maleimide (NEM) on Cys 6
B5: P54AR4-83v2 K62C, NEM conjugate (designed binder, not shown: small tags and cut ends)
chain: B1 chain with C3A, K62C
modifications: N-ethyl maleimide (NEM) on Cys 62
B6: P54AR4-83v2 F31C, NEM conjugate (designed binder, not shown: small tags and cut ends)
chain: B1 chain with C3A, F31C
modifications: N-ethyl maleimide (NEM) on Cys 31
B7: P54AR4-83v2 P4C, NEM conjugate (designed binder, not shown: small tags and cut ends)
chain: B1 chain with C3A, P4C
modifications: N-ethyl maleimide (NEM) on Cys 4
B8: P54AR4-83v2 H75C, NEM conjugate (designed binder, not shown: small tags and cut ends)
chain: B1 chain with C3A, H75C
modifications: N-ethyl maleimide (NEM) on Cys 75
B9: P54AR4-83v2 G85C, NEM conjugate (designed binder, not shown: small tags and cut ends)
chain: B1 chain with C3A, G85C
modifications: N-ethyl maleimide (NEM) on Cys 85
B10: P54AR4-83v2 E29C, NEM conjugate (designed binder, not shown: small tags and cut ends)
chain: B1 chain with C3A, E29C
modifications: N-ethyl maleimide (NEM) on Cys 29
B11: P54AR4-83v2 D80C, NEM conjugate (designed binder, not shown: small tags and cut ends)
chain: B1 chain with C3A, D80C
modifications: N-ethyl maleimide (NEM) on Cys 80
B12: P54AR4-83v2 D23C, NEM conjugate (designed binder, not shown: small tags and cut ends)
chain: B1 chain with C3A, D23C
modifications: N-ethyl maleimide (NEM) on Cys 23
B13: P54AR4-83v2 K40C, NEM conjugate (designed binder, not shown: small tags and cut ends)
chain: B1 chain with C3A, K40C
modifications: N-ethyl maleimide (NEM) on Cys 40
B14: P54AR4-83v2 N82C, NEM conjugate (designed binder, not shown: small tags and cut ends)
chain: B1 chain with C3A, N82C
modifications: N-ethyl maleimide (NEM) on Cys 82
B15: P54AR4-83v2 D15C, NEM conjugate (designed binder, not shown: small tags and cut ends)
chain: B1 chain with C3A, D15C
modifications: N-ethyl maleimide (NEM) on Cys 15
B16: P54AR4-83v2 E43C, NEM conjugate (designed binder, not shown: small tags and cut ends)
chain: B1 chain with C3A, E43C
modifications: N-ethyl maleimide (NEM) on Cys 43
B17: P54AR4-83v2 G42C, NEM conjugate (designed binder, not shown: small tags and cut ends)
chain: B1 chain with C3A, G42C
modifications: N-ethyl maleimide (NEM) on Cys 42
B18: P54AR4-83v2 G73C, NEM conjugate (designed binder, not shown: small tags and cut ends)
chain: B1 chain with C3A, G73C
modifications: N-ethyl maleimide (NEM) on Cys 73
B19: P54AR4-83v2 E53C, NEM conjugate (designed binder, not shown: small tags and cut ends)
chain: B1 chain with C3A, E53C
modifications: N-ethyl maleimide (NEM) on Cys 53
B20: P54AR4-83v2 N76C, NEM conjugate (designed binder, not shown: small tags and cut ends)
chain: B1 chain with C3A, N76C
modifications: N-ethyl maleimide (NEM) on Cys 76
B21: P54AR4-83v2 L32C, NEM conjugate (designed binder, not shown: small tags and cut ends)
chain: B1 chain with C3A, L32C
modifications: N-ethyl maleimide (NEM) on Cys 32
B22: P54AR4-83v2 M83C, NEM conjugate (designed binder, not shown: small tags and cut ends)
chain: B1 chain with C3A, M83C
modifications: N-ethyl maleimide (NEM) on Cys 83
B23: P54AR4-83v2 E39C, NEM conjugate (designed binder, not shown: small tags and cut ends)
chain: B1 chain with C3A, E39C
modifications: N-ethyl maleimide (NEM) on Cys 39
B24: P54AR4-83v2 K79C, NEM conjugate (designed binder, not shown: small tags and cut ends)
chain: B1 chain with C3A, K79C
modifications: N-ethyl maleimide (NEM) on Cys 79
B25: P54AR4-83v2 A26C, NEM conjugate (designed binder, not shown: small tags and cut ends)
chain: B1 chain with C3A, A26C
modifications: N-ethyl maleimide (NEM) on Cys 26
B26: P54AR4-83v2 G51C, NEM conjugate (designed binder, not shown: small tags and cut ends)
chain: B1 chain with C3A, G51C
modifications: N-ethyl maleimide (NEM) on Cys 51
B27: P54AR4-83v2 G60C, NEM conjugate (designed binder, not shown: small tags and cut ends)
chain: B1 chain with C3A, G60C
modifications: N-ethyl maleimide (NEM) on Cys 60
B28: P54AR4-83v2 E11C, NEM conjugate (designed binder, not shown: small tags and cut ends)
chain: B1 chain with C3A, E11C
modifications: N-ethyl maleimide (NEM) on Cys 11
B29: P54AR4-83v2 G64C, NEM conjugate (designed binder, not shown: small tags and cut ends)
chain: B1 chain with C3A, G64C
modifications: N-ethyl maleimide (NEM) on Cys 64
B30: P54AR4-83v2 I45C, NEM conjugate (designed binder, not shown: small tags and cut ends)
chain: B1 chain with C3A, I45C
modifications: N-ethyl maleimide (NEM) on Cys 45
B31: P54AR4-83v2 F27C, NEM conjugate (designed binder, not shown: small tags and cut ends)
chain: B1 chain with C3A, F27C
modifications: N-ethyl maleimide (NEM) on Cys 27
B32: P54AR4-83v2 K5C, NEM conjugate (designed binder, not shown: small tags and cut ends)
chain: B1 chain with C3A, K5C
modifications: N-ethyl maleimide (NEM) on Cys 5
notes: also called KSC
B33: P54AR4-83v2 L7C, NEM conjugate (designed binder, not shown: small tags and cut ends)
chain: B1 chain with C3A, L7C
modifications: N-ethyl maleimide (NEM) on Cys 7
B34: P54AR4-83v2 L47C, NEM conjugate (designed binder, not shown: small tags and cut ends)
chain: B1 chain with C3A, L47C
modifications: N-ethyl maleimide (NEM) on Cys 47
B35: P54AR4-83v2 D22C, NEM conjugate (designed binder, not shown: small tags and cut ends)
chain: B1 chain with C3A, D22C
modifications: N-ethyl maleimide (NEM) on Cys 22
B36: P54AR4-83v2 P2C, NEM conjugate (designed binder, not shown: small tags and cut ends)
chain: B1 chain with P2C, C3A
modifications: N-ethyl maleimide (NEM) on Cys 2
B37: P54AR4-83v2 L88C, NEM conjugate (designed binder, not shown: small tags and cut ends)
chain: B1 chain with C3A, L88C
modifications: N-ethyl maleimide (NEM) on Cys 88
B38: P54AR4-83v2 E14C, NEM conjugate (designed binder, not shown: small tags and cut ends)
chain: B1 chain with C3A, E14C
modifications: N-ethyl maleimide (NEM) on Cys 14
B39: P54AR4-83v2 A90C, NEM conjugate (designed binder, not shown: small tags and cut ends)
chain: B1 chain with C3A, A90C
modifications: N-ethyl maleimide (NEM) on Cys 90

Biological target: T1, EGFR (form used in the assay not stated) (human, UniProt P00533 25-645, limits assumed)
Experiment: ELISA, NEM conjugate, 10 nM

Row | Binder | binding relative to P54AR4-83v2 parent
1 | B1 | 0.34 ratio
2 | B2 | 0.9 ratio
3 | B3 | 0.77 ratio
4 | B4 | 0.76 ratio
5 | B5 | 0.64 ratio
6 | B6 | 0.04 ratio
7 | B7 | 0.02 ratio
8 | B8 | 0.07 ratio
9 | B9 | 0.19 ratio
10 | B10 | 0.89 ratio
11 | B11 | 0.7 ratio
12 | B12 | 0.02 ratio
13 | B13 | 0.88 ratio
14 | B14 | 0.56 ratio
15 | B15 | 0.98 ratio
16 | B16 | 0.68 ratio
17 | B17 | 0.84 ratio
18 | B18 | 0 ratio
19 | B19 | 0.91 ratio
20 | B20 | 0.75 ratio

Row | Binder | binding relative to P54AR4-83v2 parent
21 | B21 | 0.87 ratio
22 | B22 | 0.07 ratio
23 | B23 | 0.9 ratio
24 | B24 | 0.9 ratio
25 | B25 | 0.95 ratio
26 | B26 | 0.88 ratio
27 | B27 | 0.86 ratio
28 | B28 | 0.9 ratio
29 | B29 | 1.28 ratio
30 | B30 | 0.91 ratio
31 | B31 | 0 ratio
32 | B32 | 0.61 ratio
33 | B33 | 0.35 ratio
34 | B34 | 0.92 ratio
35 | B35 | 0.84 ratio
36 | B36 | 0 ratio
37 | B37 | 0.95 ratio
38 | B38 | 1.11 ratio
39 | B39 | 0.94 ratio

Biological target: T1, EGFR (form used in the assay not stated)
Experiment: ELISA, NEM conjugate, 100 nM

Row | Binder | binding relative to P54AR4-83v2 parent
40 | B1 | 0.88 ratio
41 | B2 | 1.01 ratio
42 | B3 | 0.96 ratio
43 | B4 | 1.01 ratio
44 | B5 | 0.73 ratio
45 | B6 | 0.34 ratio
46 | B7 | 0.02 ratio
47 | B8 | 0.19 ratio
48 | B9 | 0.02 ratio
49 | B10 | 1.07 ratio
50 | B11 | 0.97 ratio
51 | B12 | 0.2 ratio
52 | B13 | 0.95 ratio
53 | B14 | 0.97 ratio
54 | B15 | 1.09 ratio
55 | B16 | 1.04 ratio
56 | B17 | 0.99 ratio
57 | B18 | 0.02 ratio
58 | B19 | 1.02 ratio
59 | B20 | 0.97 ratio

Row | Binder | binding relative to P54AR4-83v2 parent
60 | B21 | 1.01 ratio
61 | B22 | 0.04 ratio
62 | B23 | 1 ratio
63 | B24 | 0.99 ratio
64 | B25 | 1.06 ratio
65 | B26 | 1.03 ratio
66 | B27 | 1.02 ratio
67 | B28 | 1.08 ratio
68 | B29 | 1.42 ratio
69 | B30 | 1.04 ratio
70 | B31 | 0.07 ratio
71 | B32 | 1.06 ratio
72 | B33 | 1 ratio
73 | B34 | 1.02 ratio
74 | B35 | 1.02 ratio
75 | B36 | 0 ratio
76 | B37 | 1.03 ratio
77 | B38 | 1.27 ratio
78 | B39 | 1.05 ratio

Biological target: T1, EGFR (form used in the assay not stated)
Experiment: ELISA, NEM conjugate, 500 nM

Row | Binder | binding relative to P54AR4-83v2 parent
79 | B1 | 0.82 ratio
80 | B2 | 1 ratio
81 | B3 | 0.92 ratio
82 | B4 | 0.89 ratio
83 | B5 | 0.61 ratio
84 | B6 | 0.62 ratio
85 | B7 | 0.12 ratio
86 | B8 | 0.25 ratio
87 | B9 | 0.29 ratio
88 | B10 | 0.93 ratio
89 | B11 | 0.91 ratio
90 | B12 | 0.4 ratio
91 | B13 | 0.86 ratio
92 | B14 | 0.96 ratio
93 | B15 | 0.97 ratio
94 | B16 | 0.92 ratio
95 | B17 | 0.9 ratio
96 | B18 | 0.21 ratio
97 | B19 | 0.91 ratio
98 | B20 | 0.91 ratio

Row | Binder | binding relative to P54AR4-83v2 parent
99 | B21 | 0.91 ratio
100 | B22 | 0.24 ratio
101 | B23 | 0.9 ratio
102 | B24 | 0.93 ratio
103 | B25 | 0.95 ratio
104 | B26 | 0.92 ratio
105 | B27 | 0.93 ratio
106 | B28 | 0.95 ratio
107 | B29 | 1.36 ratio
108 | B30 | 0.93 ratio
109 | B31 | 0.23 ratio
110 | B32 | 0.92 ratio
111 | B33 | 0.9 ratio
112 | B34 | 0.91 ratio
113 | B35 | 0.9 ratio
114 | B36 | 0.01 ratio
115 | B37 | 0.97 ratio
116 | B38 | 1.15 ratio
117 | B39 | 1.01 ratio

Reference: US20210301025A1 (published 2021)
